Laboratory results from US20140087995A1 (published 2014).
Numbered stars: 1 amine (or outer) side, 2 acyl side, 3 side chain; on linkers, the order of the positions; unused ones are H or OH. Bridge positions count the residues as written; N and C are the ends. Side chains are listed from the residue outwards. Ends that are not written are not given here. * marks the point of attachment. C20 diacid = O=C(O)CCCCCCCCCCCCCCCCCCC(=O)*; γGlu = O=C(O)[C@H](CCC(=O)[*:2])N[*:1]

T1: rat calcitonin receptor (rat, UniProt P32214 25-516)
T1 construct: whole, on cells; In cell membranes prepared from transiently transfected BHK tk'ts 13 cells (Assay VIII); also called rCTR; rat calcitonin (a) receptor
T1 sequence (looked up): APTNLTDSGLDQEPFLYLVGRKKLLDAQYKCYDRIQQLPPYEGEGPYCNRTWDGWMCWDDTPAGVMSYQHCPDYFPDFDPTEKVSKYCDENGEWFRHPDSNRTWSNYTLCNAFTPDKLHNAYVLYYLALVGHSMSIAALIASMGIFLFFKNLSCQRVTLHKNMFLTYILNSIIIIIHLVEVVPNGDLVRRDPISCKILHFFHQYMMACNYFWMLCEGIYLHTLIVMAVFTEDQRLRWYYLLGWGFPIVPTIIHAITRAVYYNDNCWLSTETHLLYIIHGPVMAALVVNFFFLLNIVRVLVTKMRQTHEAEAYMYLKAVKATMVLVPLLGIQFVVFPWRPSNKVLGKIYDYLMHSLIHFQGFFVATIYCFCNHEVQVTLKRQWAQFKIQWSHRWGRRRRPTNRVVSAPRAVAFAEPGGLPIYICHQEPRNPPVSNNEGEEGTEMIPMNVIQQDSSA

T2: human calcitonin receptor (human, UniProt P30988 25-474)
T2 construct: whole, on cells; Cell membranes from the stably transfected cell line (Assay VII); also called hCTR; hCT
T2 sequence (looked up): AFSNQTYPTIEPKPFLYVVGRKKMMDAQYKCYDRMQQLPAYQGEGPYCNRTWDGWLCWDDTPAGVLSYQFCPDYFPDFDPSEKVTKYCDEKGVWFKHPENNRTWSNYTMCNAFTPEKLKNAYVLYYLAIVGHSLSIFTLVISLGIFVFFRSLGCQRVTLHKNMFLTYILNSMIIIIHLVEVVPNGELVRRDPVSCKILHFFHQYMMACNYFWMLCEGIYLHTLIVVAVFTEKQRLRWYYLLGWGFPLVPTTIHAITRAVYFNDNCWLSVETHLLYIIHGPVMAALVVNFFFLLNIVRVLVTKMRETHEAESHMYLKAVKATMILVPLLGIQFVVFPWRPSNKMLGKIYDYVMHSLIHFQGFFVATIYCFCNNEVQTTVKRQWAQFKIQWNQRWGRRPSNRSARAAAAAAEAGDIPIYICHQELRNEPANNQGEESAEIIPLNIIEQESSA

T3: rat amylin receptor (rat calcitonin receptor + rat RAMP 3) (rat, UniProt P32214 25-516; Q9JJ73 23-147)
T3 construct: whole, on cells; Receptor complex in cell membranes prepared from transiently transfected BHK tk'ts 13 cells (Assay VI); also called rAmylin-R; rat amylin 3(a) receptor
T3 sequence (looked up) 1: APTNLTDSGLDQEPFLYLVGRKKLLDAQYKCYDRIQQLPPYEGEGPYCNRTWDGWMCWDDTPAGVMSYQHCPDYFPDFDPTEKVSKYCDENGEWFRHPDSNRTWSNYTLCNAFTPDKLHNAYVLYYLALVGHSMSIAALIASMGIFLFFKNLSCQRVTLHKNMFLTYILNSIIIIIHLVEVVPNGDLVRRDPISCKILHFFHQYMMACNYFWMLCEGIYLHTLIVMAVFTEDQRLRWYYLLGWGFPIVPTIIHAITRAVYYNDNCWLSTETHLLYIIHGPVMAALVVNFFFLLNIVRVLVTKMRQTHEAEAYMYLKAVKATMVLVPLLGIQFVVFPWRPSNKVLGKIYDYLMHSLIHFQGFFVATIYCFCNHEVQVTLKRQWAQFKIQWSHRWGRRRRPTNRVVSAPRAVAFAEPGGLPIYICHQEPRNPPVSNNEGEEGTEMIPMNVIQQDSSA
T3 sequence (looked up) 2: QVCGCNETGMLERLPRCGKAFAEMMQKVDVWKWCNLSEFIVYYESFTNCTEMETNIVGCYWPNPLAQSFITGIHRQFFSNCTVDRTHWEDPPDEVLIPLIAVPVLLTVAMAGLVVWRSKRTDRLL


Key:
[1] = molecular target: T1, rat calcitonin receptor; assay: ratio of binding IC50s: rat calcitonin receptor (Assay VIII) over rat amylin receptor (Assay VI)
[2] = molecular target: T2, human calcitonin receptor; assay: ratio of binding IC50s: human calcitonin receptor (Assay VII) over human amylin receptor (Assay V)
Description: The resulting pellet was resuspended, homogenized and centrifuged (20.000 rpm, 15 min) in a buffer containing 20 mM Na-HEPES and 0.1 mM EDTA (pH 7.4, buffer 2). The resulting pellet was resuspended in buffer 2 and protein concentration was measured (BCA protein Assay, Pierce). The homogenate was kept cold during the whole procedure. The membranes were kept at −80° C. until use. The assay was performed in a 384 well Optiplate (PerkinElmer) in a total volume of 40 ul. Membranes were mixed with SPA beads. Final concentration of membranes 35 ng/μL final and SPA beads was 0.05 mg/well. Test-compounds were dissolved in DMSO and further diluted in assay buffer (50 mM Hepes, pH 7.4, 1 mM CaCl2, 5 mM MgCl₂, 0.1% OA and 0.02% Tween20). […] The final mixture was incubated with shaking at 400 rpm for 120 min at 25° C. prior to centrifugation (1500 rpm, 10 min). Samples were analyzed on TopCounter™ (Packard). The IC₅₀ was calculated using (one site binding competition analysis) GraphPad Prism5 as a measure of receptor affinity.
Membranes were prepared in the following way; the cells were rinsed with PBS and incubated with Versene for approximately 5 min before harvesting. The cells were flushed with PBS and the cell-suspension was centrifuged for 5 min at 1000 rpm. Cells were homogenized (Ultrathurrax) in a buffer containing 20 mM Na-HEPES and 10 mM EDTA (pH 7.4) and centrifuged at 20.000 rpm for 15 min. The resulting pellet was resuspended, homogenized and centrifuged (20.000 rpm, 15 min) in a buffer containing 20 mM Na-HEPES and 0.1 mM EDTA (pH 7.4, buffer 2). The resulting pellet was resuspended in buffer 2 and protein concentration was measured (BCA protein Assay, Pierce). The homogenate was kept cold during the whole procedure. The membranes were kept at −80° C. until use. Assay was performed in a 384 well Optiplate (PerkinElmer) in a total volume of 40 ul. Membranes were mixed with SPA beads.

[3] = molecular target: T1, rat calcitonin receptor; assay: SPA competition binding, displacement of 125I-Calcitonin from membranes of BHK tk'ts 13 cells with rat calcitonin receptor (Assay VIII)
[4] = molecular target: T3, rat amylin receptor (rat calcitonin …); assay: SPA competition binding, displacement of 125I-rat amylin from membranes of BHK tk'ts 13 cells with rat calcitonin receptor + rat RAMP 3 (Assay VI)
Description: The binding assay was performed using scintillation proximity assay (SPA) beads (RPNQ0001) from PerkinElmer and cell membranes from the Amylin 3(a)/CRE-luc cells (as described in Assay (II)) were used. Membranes were prepared in the following way; the cells were rinsed with PBS and incubated with Versene for approximately 5 min before harvesting. The cells were flushed with PBS and the cell-suspension was centrifuged for 5 min at 1000 rpm. Cells were homogenized (ultrathurrax) in a buffer containing 20 mM Na-HEPES and 10 mM EDTA (pH 7.4) and centrifuged at 20.000 rpm for 15 min. The resulting pellet was resuspended, homogenized and centrifuged (20.000 rpm, 15 min) in a buffer containing 20 mM Na-HEPES and 0.1 mM EDTA (pH 7.4, buffer 2). The resulting pellet was resuspended in buffer 2 and protein concentration was measured (BCA protein Assay, Pierce). The homogenate was kept cold during the whole procedure. The membranes were kept at −80° C. until use. The assay was performed in a 384 well Optiplate (PerkinElmer) in a total volume of 40 ul. Membranes were mixed with SPA beads. Final concentration of membranes 35 ng/μL final and SPA beads was 0.05 mg/well. Test-compounds were dissolved in DMSO and further diluted in assay buffer (50 mM Hepes, pH 7.4, 1 mM CaCl2, 5 mM MgCl₂, 0.1% OA and 0.02% Tween20). […] The final mixture was incubated with shaking at 400 rpm for 120 min at 25° C. prior to centrifugation (1500 rpm, 10 min). Samples were analyzed on TopCounter™ (Packard). The IC₅₀ was calculated using (one site binding competition analysis) GraphPad Prism5 as a measure of receptor affinity.
Cells were grown in DMEM with 10% FBS and 1% Pen/Strep. Approximately 48 hours after transfection, the cells were harvested and membranes were prepared.

Ratio rCT/rAmylin binding [1]	Ratio hCT/hAmylin binding [2]	IC50 [3] [nM]	IC50 [4] [nM]	Binder
98.5	49.8	31.9	0.324	K([γGlu-γGlu-C20 diacid])CNTATCATQRLADFLRHSSPNFGAIPSSTNVGPETY-NH2 (disulfide 2-7; N-terminus assumed; SMILES CC[C@H](C)[C@H](NC(=O)[C@H](C)NC(=O)CNC(=O)[C@H](Cc1ccccc1)NC(=O)[C@H](CC(N)=O)NC(=O)[C@@H]1CCCN1C(=O)[C@H](CO)NC(=O)[C@H](CO)NC(=O)[C@H](Cc1c[nH]cn1)NC(=O)[C@H](CCCNC(=N)N)NC(=O)[C@H](CC(C)C)NC(=O)[C@H](Cc1ccccc1)NC(=O)[C@H](CC(=O)O)NC(=O)[C@H](C)NC(=O)[C@H](CC(C)C)NC(=O)[C@H](CCCNC(=N)N)NC(=O)[C@H](CCC(N)=O)NC(=O)[C@@H](NC(=O)[C@H](C)NC(=O)[C@@H]1CSSC[C@H](NC(=O)[C@@H](N)CCCCNC(=O)CC[C@H](NC(=O)CC[C@H](NC(=O)CCCCCCCCCCCCCCCCCCC(=O)O)C(=O)O)C(=O)O)C(=O)N[C@@H](CC(N)=O)C(=O)N[C@@H]([C@@H](C)O)C(=O)N[C@@H](C)C(=O)N[C@@H]([C@@H](C)O)C(=O)N1)[C@@H](C)O)C(=O)N1CCC[C@H]1C(=O)N[C@@H](CO)C(=O)N[C@@H](CO)C(=O)N[C@H](C(=O)N[C@@H](CC(N)=O)C(=O)N[C@H](C(=O)NCC(=O)N1CCC[C@H]1C(=O)N[C@@H](CCC(=O)O)C(=O)N[C@H](C(=O)N[C@@H](Cc1ccc(O)cc1)C(N)=O)[C@@H](C)O)C(C)C)[C@@H](C)O)
240	280	223	0.93	K([γGlu-γGlu-C20 diacid])CNTATCATQRLADFLRHSSPNFGAIPSSTNVGPRTY-NH2 (disulfide 2-7, also called compound 130)
